Reference: the supplement of paper PMC12783771
± gives the standard deviation of the averaged measurements.

B1: library; numbered along this chain (parent)
chain: MNIQIGELAKRTACPVVTIRFYEQEGLLPPPGRSRGNFRLYGEEHVERLQFIRHCRSLDMPLSDVRTLLSYRKRPDQDCGEVNMLLDEHIRQVESRIGALLELKHHLVELREACSGARPAQSCGILQGLSDCVCDTRGTTAHPSD

Tests used:
[1] = variants of: B1; assay: sfGFP reporter fluorescence (15 h) (µM FITC); higher = higher leak; settings: library round: Round 0; ligand: none
Summary of the method: (§1)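 An Echo normalized PCR-made linear PbrR templates to 5 nM and assembled 1 μL reactions in BL21 Star (DE3) PANOx-SP extract carrying the pPbrR-sfGFP reporter plasmid and 30 μg/mL GamS. Reactions received 1 µM lead chloride, 30 µM zinc acetate or no metal and stood 15 hr at 30 °C. Fluorescence at 485/528 nm (Synergy Neo2) was converted with FITC standard curves made in 50 mM sodium borate pH 8.5. Endpoint sfGFP signal is given in µM FITC, from up to three biological replicates.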

[2] = variants of: B1; assay: sfGFP reporter fluorescence (15 h) (µM FITC); higher = stronger transcriptional activation; settings: library round: Round 0
Summary of the method: as §1

Row | Variant | sfGFP reporter fluorescence [1] | sfGFP reporter fluorescence ([2]; ligand: 1 µM Pb) | sfGFP reporter fluorescence ([2]; ligand: 30 µM Zn)
1 | E109W | 0.061 ± 0.00078 | 0.0872 ± 0.0026 | 1.26 ± 0.035
2 | E109H | 0.0581 ± 0.0013 | 0.0867 ± 0.0075 | 0.456 ± 0.012
3 | E109C | 0.0596 ± 0.00078 | 0.0867 ± 0.0054 | 1.54 ± 0.077
4 | E109N | 0.05974 ± 0.00052 | 0.0845 ± 0.0044 | 1.47 ± 0.018
5 | E109I | 0.05919 ± 0.00026 | 0.108 ± 0.0018 | 1.25 ± 0.29
6 | E109A | 0.0636 ± 0.00078 | 0.0804 ± 0.0039 | 0.883 ± 0.35
7 | E109F | 0.0621 ± 0.0013 | 0.09126 ± 0.00052 | 1.32 ± 0.051
8 | E109D | 0.0597 ± 0.0021 | 0.0727 ± 0.0023 | 0.674 ± 0.02
9 | E109K | 0.0649 ± 0.001 | 0.09492 ± 0.00052 | 2.2 ± 0.14
10 | E109L | 0.0586 ± 0.001 | 0.0907 ± 0.0029 | 1.12 ± 0.12
11 | E109Y | 0.06029 ± 0.00026 | 0.0832 ± 0.0031 | 1.46 ± 0.15
12 | E109R | 0.06542 ± 0.00026 | 0.102 ± 0.0078 | 1.86 ± 0.052
13 | E109Q | 0.0601 | 0.0823 ± 0.0034 | 1.08 ± 0.25
14 | E109M | 0.061 ± 0.0013 | 0.0806 ± 0.0057 | 0.957 ± 0.061
15 | E109S | 0.0592 ± 0.00078 | 0.0803 ± 0.0026 | 1.47 ± 0.04
16 | E109P | 0.0662 ± 0.0023 | 0.155 ± 0.011 | 1.45 ± 0.11
17 | E109T | 0.0625 ± 0.0018 | 0.0935 ± 0.0026 | 1.71 ± 0.12
18 | E109G | 0.05644 ± 0.00052 | 0.0695 ± 0.0013 | 0.793 ± 0.063
19 | E109V | 0.0605 ± 0.0042 | 0.107 ± 0.0096 | 1.69 ± 0.1
20 | K104V G128I | 0.0826 ± 0.006 | 0.287 ± 0.021 | 1.84 ± 0.44
21 | K104V G128M | 0.179 ± 0.0031 | 0.808 ± 0.088 | 3.325 ± 0.0054
22 | G116A | 0.0597 | 0.0581 ± 0.0023 | 0.18 ± 0.063

Row | Variant | sfGFP reporter fluorescence [1] | sfGFP reporter fluorescence ([2]; ligand: 1 µM Pb) | sfGFP reporter fluorescence ([2]; ligand: 30 µM Zn)
23 | H106A | 0.0596 ± 0.0034 | 0.0667 ± 0.00052 | 0.213 ± 0.02
24 | L101A | 0.0632 ± 0.0013 | 0.0746 ± 0.0013 | 0.555 ± 0.17
25 | L107C G128M | 3.17 ± 0.33 | 3.98 ± 0.14 | 4.14 ± 0.45
26 | L107C G128I | 1.34 ± 0.036 | 3.12 ± 0.11 | 4.14 ± 0.064
27 | E112Q | 0.0627 ± 0.0015 | 0.0909 ± 0.0078 | 1.27 ± 0.082
28 | E112C | 0.0616 ± 0.001 | 0.0759 ± 0.0036 | 0.1508 ± 0.0013
29 | E112G | 0.0586 ± 0.0026 | 0.0847 ± 0.0042 | 1.23 ± 0.12
30 | E112R | 0.0658 ± 0.00078 | 0.107 ± 0.0088 | 1.53 ± 0.029
31 | E112N | 0.06212 ± 0.00026 | 0.079 ± 0.0029 | 1.04 ± 0.13
32 | E112K | 0.0706 ± 0.00078 | 0.1164 ± 0.00078 | 2.4 ± 0.25
33 | E112I | 0.0542 ± 0.0015 | 0.06175 ± 0.00026 | 0.282 ± 0.021
34 | E112F | 0.0575 ± 0.0026 | 0.0647 ± 0.0023 | 0.24 ± 0.012
35 | E112Y | 0.05919 ± 0.00026 | 0.06395 ± 0.00026 | 0.198 ± 0.028
36 | E112D | 0.0612 ± 0.0021 | 0.0722 ± 0.0026 | 0.565 ± 0.043
37 | E112V | 0.0572 ± 0.0015 | 0.06597 ± 0.00052 | 0.343 ± 0.0078
38 | E112P | 0.0557 ± 0.001 | 0.057 ± 0.00078 | 0.0561
39 | E112W | 0.0579 ± 0.0015 | 0.0627 ± 0.001 | 0.152 ± 0.014
40 | E112H | 0.05882 ± 0.00026 | 0.077 ± 0.0057 | 0.424 ± 0.012
41 | E112S | 0.0673 ± 0.00078 | 0.1083 ± 0.00078 | 1.9 ± 0.14
42 | E112A | 0.063 ± 0.0021 | 0.0929 ± 0.0039 | 1.31 ± 0.092
43 | E112T | 0.0605 | 0.0804 ± 0.0029 | 0.857 ± 0.06
44 | E112L | 0.0603 ± 0.00078 | 0.0867 ± 0.0034 | 0.851 ± 0.048

Row | Variant | sfGFP reporter fluorescence [1] | sfGFP reporter fluorescence ([2]; ligand: 1 µM Pb) | sfGFP reporter fluorescence ([2]; ligand: 30 µM Zn)
45 | E112M | 0.06212 ± 0.00026 | 0.0938 ± 0.0093 | 0.9465 ± 0.007
46 | S115A | 0.0599 ± 0.00078 | 0.0663 ± 0.0047 | 0.478 ± 0.14
47 | L110M | 0.0568 ± 0.0015 | 0.05644 ± 0.00052 | 0.0574 ± 0.0023
48 | L110C | 0.05754 ± 0.00052 | 0.0577 ± 0.00078 | 0.0766 ± 0.0042
49 | L110S | 0.05626 ± 0.00026 | 0.05772 ± 0.00026 | 0.0614 ± 0.0018
50 | L110R | 0.0579 ± 0.0015 | 0.0596 ± 0.00078 | 0.06615 ± 0.00026
51 | L110P | 0.0594 ± 0.0015 | 0.0581 ± 0.0018 | 0.0575 ± 0.0015
52 | L110F | 0.05626 ± 0.00026 | 0.0599 ± 0.0018 | 0.0619 ± 0.0021
53 | L110V | 0.0601 ± 0.0021 | 0.06634 ± 0.00052 | 0.502 ± 0.065
54 | L110T | 0.05736 ± 0.00026 | 0.0601 ± 0.001 | 0.158 ± 0.0029
55 | L110H | 0.0638 ± 0.0021 | 0.081 ± 0.0042 | 2.52 ± 0.29
56 | L110E | 0.059 ± 0.001 | 0.0614 ± 0.0013 | 0.0579 ± 0.001
57 | L110D | 0.0575 ± 0.0015 | 0.0586 | 0.0574 ± 0.00078
58 | L110K | 0.05772 ± 0.00026 | 0.05864 ± 0.00052 | 0.0792 ± 0.0021
59 | L110Q | 0.0555 ± 0.0013 | 0.057 ± 0.00078 | 0.05589 ± 0.00026
60 | L110W | 0.057 ± 0.0018 | 0.0572 ± 0.0015 | 0.0537 ± 0.0023
61 | L110G | 0.05498 ± 0.00052 | 0.0548 ± 0.00078 | 0.0531 ± 0.0031
62 | L110A | 0.0727 ± 0.0013 | 0.0698 ± 0.0018 | 0.0729 ± 0.0026
63 | L110Y | 0.0581 ± 0.00078 | 0.0597 | 0.0656 ± 0.001
64 | L110I | 0.05571 ± 0.00052 | 0.0579 ± 0.0015 | 0.542 ± 0.036
65 | L110N | 0.0579 | 0.05791 ± 0.00052 | 0.0627
66 | L100A | 0.0803 ± 0.0015 | 0.131 ± 0.0044 | 0.663 ± 0.2

Row | Variant | sfGFP reporter fluorescence [1] | sfGFP reporter fluorescence ([2]; ligand: 1 µM Pb) | sfGFP reporter fluorescence ([2]; ligand: 30 µM Zn)
67 | L103A | 0.0629 ± 0.0013 | 0.06945 ± 0.00026 | 0.918 ± 0.037
68 | L107I | 0.0579 ± 0.001 | 0.0671 ± 0.0036 | 0.808 ± 0.065
69 | L107W | 0.0599 ± 0.0013 | 0.0638 | 0.118 ± 0.0013
70 | L107K | 0.0561 ± 0.0057 | 0.05864 ± 0.00052 | 0.0861 ± 0.0026
71 | L107T | 0.0797 ± 0.0054 | 0.282 ± 0.015 | 1.93 ± 0.22
72 | L107S | 0.12 ± 0.0091 | 0.5454 ± 0.0042 | 2.27 ± 0.042
73 | L107C | 0.491 ± 0.053 | 1.05 ± 0.062 | 2.85 ± 0.46
74 | L107H | 0.05662 ± 0.00026 | 0.0535 ± 0.0021 | 0.0821 ± 0.0015
75 | L107R | 0.059 ± 0.001 | 0.055 ± 0.0021 | 0.0781 ± 0.0031
76 | L107Q | 0.0579 ± 0.0047 | 0.08521 ± 0.00078 | 0.764 ± 0.047
77 | L107V | 0.0854 ± 0.001 | 0.19 ± 0.022 | 2.03 ± 0.021
78 | L107P | 0.0568 ± 0.0015 | 0.0528 ± 0.0052 | 0.0621 ± 0.0018
79 | L107Y | 0.0603 ± 0.0013 | 0.06762 ± 0.00026 | 0.209 ± 0.0091
80 | L107G | 0.05956 ± 0.00026 | 0.0836 ± 0.0036 | 0.4444 ± 0.0044
81 | L107N | 0.0546 ± 0.0047 | 0.0759 ± 0.0015 | 0.511 ± 0.027
82 | L107F | 0.0528 ± 0.0015 | 0.0495 ± 0.0021 | 0.0636 ± 0.0039
83 | L107E | 0.05882 ± 0.00026 | 0.0746 ± 0.0096 | 0.288 ± 0.054
84 | L107D | 0.0586 ± 0.0021 | 0.0596 ± 0.0018 | 0.0579 ± 0.0026
85 | L107A | 0.514 ± 0.0098 | 1.97 ± 0.12 | 2.84 ± 0.79
86 | L107M | 0.0546 ± 0.0015 | 0.0605 ± 0.0026 | 0.371 ± 0.046
87 | V108R | 0.059 | 0.0788 ± 0.0021 | 0.8752 ± 0.0047
88 | V108L | 0.0594 ± 0.001 | 0.0696 ± 0.0026 | 0.616 ± 0.035
